Source: US20200150118A1

Target: T1, S100A9 (alarmin) in autologous bone marrow plasma of MDS patients (human) (UniProt P06702)
T1 sequence (looked up): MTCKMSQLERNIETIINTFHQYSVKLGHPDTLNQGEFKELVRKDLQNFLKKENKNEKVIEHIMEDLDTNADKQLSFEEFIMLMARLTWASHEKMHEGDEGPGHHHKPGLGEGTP
Experiment: cell-based or functional assay

Substance: S100A9 high-affinity chimeric (CD33-IgG1) decoy receptor (from UniProt P20138 18-259) (Fc fusion)
- reduction of the fraction of pyroptotic cells, CD33+ cells (MDS BM-MNC in autologous BM plasma, flow cytometry): 68%
- reduction of the fraction of pyroptotic cells, CD71+ cells (MDS BM-MNC in autologous BM plasma, flow cytometry): 64%
- reduction of the fraction of pyroptotic cells, progenitor cells (MDS BM-MNC in autologous BM plasma, flow cytometry): 23%
- reduction of the fraction of pyroptotic cells, stem cells (MDS BM-MNC in autologous BM plasma, flow cytometry): 44%
